Here are results for two molecules from doi:10.1101/2021.07.22.452893 (bioRxiv, 2021).

What is called Kd is the free concentration of one partner at which half of the binding sites on the other are occupied at equilibrium, for simple one-to-one binding. Higher therefore signals a looser complex.

Experiment [1] addresses Complement factor H (human) (UniProt P08603). Briefly: ELISA. Background: An ELISA detects its analyte on a solid surface through an enzyme-linked reagent.
The target of experiment [2] is T1, fibrinogen (UniProt P02671-2 20-644; P02675 31-491; P02679-2 27-437).
T1 sequence (looked up) 1: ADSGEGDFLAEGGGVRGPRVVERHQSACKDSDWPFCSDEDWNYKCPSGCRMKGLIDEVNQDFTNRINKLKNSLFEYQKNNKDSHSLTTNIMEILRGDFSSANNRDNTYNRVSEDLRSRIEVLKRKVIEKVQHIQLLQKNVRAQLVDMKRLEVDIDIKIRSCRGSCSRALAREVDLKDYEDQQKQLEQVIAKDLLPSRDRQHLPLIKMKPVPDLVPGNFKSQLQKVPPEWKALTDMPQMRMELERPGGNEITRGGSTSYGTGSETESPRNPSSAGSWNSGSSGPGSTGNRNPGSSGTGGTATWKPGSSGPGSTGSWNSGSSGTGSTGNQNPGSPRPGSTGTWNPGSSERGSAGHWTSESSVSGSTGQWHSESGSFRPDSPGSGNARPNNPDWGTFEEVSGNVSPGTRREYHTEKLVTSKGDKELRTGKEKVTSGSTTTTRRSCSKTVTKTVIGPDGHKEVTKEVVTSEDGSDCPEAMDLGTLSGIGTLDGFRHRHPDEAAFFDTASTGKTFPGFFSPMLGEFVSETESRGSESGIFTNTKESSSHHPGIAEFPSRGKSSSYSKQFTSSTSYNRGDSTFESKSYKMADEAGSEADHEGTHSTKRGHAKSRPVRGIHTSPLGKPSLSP
T1 sequence (looked up) 2: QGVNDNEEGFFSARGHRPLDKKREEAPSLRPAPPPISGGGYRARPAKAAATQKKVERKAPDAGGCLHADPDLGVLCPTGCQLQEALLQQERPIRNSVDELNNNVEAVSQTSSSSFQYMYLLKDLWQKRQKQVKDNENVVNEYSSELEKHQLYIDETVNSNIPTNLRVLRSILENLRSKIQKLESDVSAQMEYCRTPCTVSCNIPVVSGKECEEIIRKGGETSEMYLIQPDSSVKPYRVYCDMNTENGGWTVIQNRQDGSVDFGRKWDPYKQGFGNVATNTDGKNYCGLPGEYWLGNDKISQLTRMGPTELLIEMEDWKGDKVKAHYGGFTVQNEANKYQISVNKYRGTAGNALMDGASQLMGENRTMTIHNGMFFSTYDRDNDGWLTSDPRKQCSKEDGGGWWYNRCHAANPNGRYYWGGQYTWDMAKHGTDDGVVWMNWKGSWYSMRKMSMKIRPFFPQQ
T1 sequence (looked up) 3: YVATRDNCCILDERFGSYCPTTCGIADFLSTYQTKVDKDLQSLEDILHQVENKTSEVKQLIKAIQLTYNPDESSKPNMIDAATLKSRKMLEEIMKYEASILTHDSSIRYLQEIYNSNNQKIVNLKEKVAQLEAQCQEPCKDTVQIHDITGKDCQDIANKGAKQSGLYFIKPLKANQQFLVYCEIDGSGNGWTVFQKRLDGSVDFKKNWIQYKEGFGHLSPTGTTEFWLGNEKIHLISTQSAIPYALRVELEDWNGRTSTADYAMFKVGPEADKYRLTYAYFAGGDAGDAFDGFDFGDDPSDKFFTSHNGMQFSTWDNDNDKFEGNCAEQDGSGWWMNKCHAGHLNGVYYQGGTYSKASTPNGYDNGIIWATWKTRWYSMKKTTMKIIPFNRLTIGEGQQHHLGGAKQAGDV
Briefly: SPR. On the technique in general: In SPR one partner is held on a chip, and binding of the other changes the refractive index at the surface.

In experiment [3] the target is PPACK-thrombin. Briefly: SPR.

In turn, PPACK-thrombin (enzyme) had an FH-thrombin complex formed in plasma in experiment [1] of 62 nM.

B1: Complement factor H (natural protein, human, UniProt P08603 19-1231, looked up)
chain: EDCNELPPRRNTEILTGSWSDQTYPEGTQAIYKCRPGYRSLGNVIMVCRKGEWVALNPLRKCQKRPCGHPGDTPFGTFTLTGGNVFEYGVKAVYTCNEGYQLLGEINYRECDTDGWTNDIPICEVVKCLPVTAPENGKIVSSAMEPDREYHFGQAVRFVCNSGYKIEGDEEMHCSDDGFWSKEKPKCVEISCKSPDVINGSPISQKIIYKENERFQYKCNMGYEYSERGDAVCTESGWRPLPSCEEKSCDNPYIPNGDYSPLRIKHRTGDEITYQCRNGFYPATRGNTAKCTSTGWIPAPRCTLKPCDYPDIKHGGLYHENMRRPYFPVAVGKYYSYYCDEHFETPSGSYWDHIHCTQDGWSPAVPCLRKCYFPYLENGYNQNYGRKFVQGKSIDVACHPGYALPKAQTTVTCMENGWSPTPRCIRVKTCSKSSIDIENGFISESQYTYALKEKAKYQCKLGYVTADGETSGSITCGKDGWSAQPTCIKSCDIPVFMNARTKNDFTWFKLNDTLDYECHDGYESNTGSTTGSIVCGYNGWSDLPICYERECELPKIDVHLVPDRKKDQYKVGEVLKFSCKPGFTIVGPNSVQCYHFGLSPDLPICKEQVQSCGPPPELLNGNVKEKTKEEYGHSEVVEYYCNPRFLMKGPNKIQCVDGEWTTLPVCIVEESTCGDIPELEHGWAQLSSPPYYYGDSVEFNCSESFTMIGHRSITCIHGVWTQLPQCVAIDKLKKCKSSNLIILEEHLKNKKEFDHNSNIRYRCRGKEGWIHTVCINGRWDPEVNCSMAQIQLCPPPPQIPNSHNMTTTLNYRDGEKVSVLCQENYLIQEGEEITCKDGRWQSIPLCVEKIPCSQPPQIEHGTINSSRSSQESYAHGTKLSYTCEGGFRISEENETTCYMGKWSSPPQCEGLPCKSPPEISHGVVAHMSDSYQYGEEVTYKCFEGFGIDGPAIAKCLGEKWSHPPSCIKTDCLSLPSFENAIPMGEKKDVYKAGEQVTYTCATYYKMDGASNVTCINSRWTGRPTCRDTSCVNPPTVQNAYIVSRQMSKYPSGERVRYQCRSPYEMFGDEEVMCLNGNWTEPPQCKDSTGKCGPPPPIDNGDITSFPLSVYAPASSVEYQCQNLYQLEGNKRITCRNGQWSEPPKCLHPCVISREIMENYNIALRWTAKQKLYSRTGESVEFVCKRGYRLSSRSHTLRTTCWDGKLEYPTCAKR
Turning to B1, the Kd was determined as 38.2 nM in experiment [2] and 29.7 nM in experiment [3].
